Measured values as given in US20210325404A1 (ADURO BIOTECH HOLDINGS EUROPE B V, published 2021).

T1: human APRIL in serum of CLL patients (human, UniProt O75888 105-250)
T1 construct: Endogenous soluble APRIL in patient sera (CLL1, CLL3, CLL6, CLL11-20); also called hAPRIL; A Proliferation-Inducing Ligand
T1 sequence (looked up): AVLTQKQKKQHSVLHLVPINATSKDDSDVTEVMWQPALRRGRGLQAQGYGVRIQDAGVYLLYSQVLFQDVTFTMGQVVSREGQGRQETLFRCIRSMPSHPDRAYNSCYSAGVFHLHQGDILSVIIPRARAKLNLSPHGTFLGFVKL


How the values were obtained:
[1] = target: T1, human APRIL in serum of CLL patients; assay: ELISA: serum APRIL of CLL1, CLL3 and CLL6 captured by BCMA-Fc (500 or 100 ng/well)
Method: To quantify the APRIL serum levels in serum derived from CLL patients using the newly identified APRIL monoclonal antibodies, hAPRIL.130, hAPRIL.132, hAPRIL.133, hAPRIL.135 and hAPRIL.138 the following ELISA assay was performed. […] Next, plates were washed three times with PBS/0.2% Tween and blocked with 150 μl PBS/1% BSA for one hour at 37° C. After washing 3 times with PBS/0.2% Tween 100 μl of samples or standard curves was added. The CLL serum samples were five times diluted in PBS/10% FCS, while standard curve was diluted in PBS+FCS 10%+HS 20%. Samples and standard curve concentrations were incubated for 2 hr at room temperature. Next, plates were washed three times with PBS/0.2% Tween. Next, 100 μl of the anti-APRIL monoclonal antibody was added to the plates at a concentration of 1 μg/ml diluted in PBS/1% BSA and incubated for one hour at 37° C. Subsequently, plates were washed three times with PBS/0.2% Tween and 100 μl of Goat anti-Mouse IgG (H&L) (Southern Biotech, cat number 1031-05), diluted 1:1,000 in PBS/1% BSA was added and incubated for one hour at 37° C. Plates were washed three times with PBS/0.2% Tween and bound immune complexes visualized by addition of 100 μl of TMB substrate (TMB). The reaction was stopped by adding an equal amount of 1 M hydrochloric acid to the reaction volume. Bound APRIL was quantified by measurement of optical density at 450 nm.

[2] = target: T1, human APRIL in serum of CLL patients; assay: ELISA: serum APRIL captured by BCMA-Fc, antibody at 1 µg/ml, goat anti-mouse IgG detection
Method: To quantify the APRIL serum levels in serum derived from CLL patients using the newly identified APRIL monoclonal antibodies, hAPRIL.130, hAPRIL.132, hAPRIL.133, hAPRIL.135 and hAPRIL.138 the following ELISA assay was performed. ELISA plates were coated with 100 μl of 0.5 μg/ml BCMA-Fc (EBC0512081; R&D), in coating buffer (0.2 M Sodium Phosphate, pH=6.5) and incubated overnight at 4° C. Next, plates were washed three times with PBS/0.2% Tween and blocked with 150 μl PBS/1% BSA for one hour at 37° C. After washing 3 times with PBS/0.2% Tween 100 μl of samples or standard curves was added. The CLL serum samples were five times diluted in PBS/10% FCS, while standard curve was diluted in PBS+FCS 10%+HS 20%. Samples and standard curve concentrations were incubated for 2 hr at room temperature. Next, plates were washed three times with PBS/0.2% Tween. Next, 100 μl of the anti-APRIL monoclonal antibody was added to the plates at a concentration of 1 μg/ml diluted in PBS/1% BSA and incubated for one hour at 37° C. Subsequently, plates were washed three times with PBS/0.2% Tween and 100 μl of Goat anti-Mouse IgG (H&L) (Southern Biotech, cat number 1031-05), diluted 1:1,000 in PBS/1% BSA was added and incubated for one hour at 37° C. […] Bound APRIL was quantified by measurement of optical density at 450 nm.

Row | Binder | binding result [1] | binding result [2]
1 | hAPRIL.135 (antibody, IgG1, V domains shown, constant regions are not; also called anti-hAPRIL antibody hAPRIL.135) VH: QVQLKESGPGLVAPSQSLSITCTVSGFSLSRYSVHWVRQPPGKGLEWLGMIWGGGSTDYNSALKSRLSISKDNSKRQVFLKMNSLQTDDTAIYYCARSNWEIYALDYWGQGTSVTVSS VL: DIVLTQSPASLAVSLGQRATISCKASQSIDYDGDNYMNWYQQKPGQPPKLLIYVASSLESGIPARFSGSGSGTDFTLNIHPVEEEDAATYYCQQSNVEPYTFGGGTKLEIK | binds | 
2 | hAPRIL.138 (antibody, IgG1, V domains shown, constant regions are not; also called anti-hAPRIL antibody hAPRIL.138) VH: QVQLKESGPGLVAPSQSLSITCTVSGFSLSRYSIHWVRQPPRKGLEWLGMIWGGGSTDYNSALKSRLSINKDNSKRQVFLKMHSLQTDDTAIYYCARSNWEIYAMDYWGQGTSVTVSS VL: DIVLTQSPPSLAVSLGQRATISCKASQSIDYDGDRYMNWYQQKPGQPPKLLIYVASNLESGIPARFSGSGSGTDFTLNIHPVEEEDAATYYCQQSHEEPHTFGGGTKLEIK |  | binds
3 | hAPRIL.132 (antibody, IgG1, V domains shown, constant regions are not; also called anti-hAPRIL antibody hAPRIL.132) VH: QEQLKESGPGLVAPSQSLSITCTVSGFSLTSYGVHWVRQPPGKGLEWLGVIWAGGSTNYNSALMSRLSISRDNSKSQVFLKMNSLQTDDTAMYYCAREGLDTSGFYYAMDYWGQGTSVTVSS VL: DIQMTQTTSSLSASLGDRVTISCRAGQAISNYLNWYQQKPGGTVKLLIYYTSKLHSGVPSRFSGSGSGTDYSLTISNLEQEDIATYFCQQGYTLPYTFGGGTKLEIK | binds | 
4 | hAPRIL.133 (antibody, IgG1, V domains shown, constant regions are not; also called hAPRIL.133 mAb; anti-hAPRIL.133 monoclonal antibody) VH: QVQLKESGPGLVAPSQSLSITCTVSGFSLTGYGVNWVRQPPGKGLEWLGVIWGDGSTEYNSALKSRLSISKDKSKSQVFLKMNSLQTDDTARYYCARDDDVMDYWGQGTSVTVSS VL: SIVMTQTPKFLLVSAGDSITITCKADQSVSSDVAWYQQKAGQSPKLLIYYASNRYTGVPDRFTGSGYGTDFTFAISSVQAEDLAVYFCQQDYSSPWTFGGGTKLEIK | binds | 
